The target in test [1] is target expressed in cell line for the HER2/CD276 trivalent molecules (HER2 and/or CD276; cell line not named). The experiment in a line: titration binding FACS, target cell line not named.
The next test deals with T1, CD276 on HEK293T cells (UniProt Q5ZPR3 29-534, limits assumed).
T1 construct: whole, on cells
T1 sequence (looked up): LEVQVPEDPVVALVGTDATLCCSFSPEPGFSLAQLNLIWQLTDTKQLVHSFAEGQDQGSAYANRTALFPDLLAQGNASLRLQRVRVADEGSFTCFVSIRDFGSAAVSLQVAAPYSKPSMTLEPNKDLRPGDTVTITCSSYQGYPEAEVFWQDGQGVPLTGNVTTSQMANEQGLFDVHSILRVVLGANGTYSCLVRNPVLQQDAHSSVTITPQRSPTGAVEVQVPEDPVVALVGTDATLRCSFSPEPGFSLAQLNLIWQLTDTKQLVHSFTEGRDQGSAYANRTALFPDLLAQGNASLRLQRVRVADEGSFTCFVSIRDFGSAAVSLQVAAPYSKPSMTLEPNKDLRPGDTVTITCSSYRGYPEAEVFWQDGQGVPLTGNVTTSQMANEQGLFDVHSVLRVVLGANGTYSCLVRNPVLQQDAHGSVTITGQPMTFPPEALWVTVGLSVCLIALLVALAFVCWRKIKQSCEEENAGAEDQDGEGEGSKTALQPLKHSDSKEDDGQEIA
Nature of the test: FACS titration on HEK293T cells (the line used for CD276 binding evaluation), GeoMFI (RL1-H); control cell line Jurkat E6-1. The protocol:
(§1) Subsequently the EC50 of antibodies samples was determined by titration binding FACS on Daudi cells (for CD38 binding evaluation), on THP-1 cells (for CD33 binding evaluation), on A-431 cells (for EGFR binding evaluation), on MKN-45 cells (for CEACAMS binding evaluation) and on HEK293T (for CD276 binding evaluation). Jurkat E6-1 or HEK293T cell lines were used as negative control, as applicable.

Test [2] addresses T2, bio-huCD38 (human (hu), UniProt P28907 43-300, biotinylated (bio-), site not stated). The experiment in a line: SPR, antigen immobilized, antibody as analyte 25-1.6 nM; at the instrument's limit. In general terms: In SPR one partner is held on a chip, and binding of the other changes the refractive index at the surface.
Test [3] addresses T2, bio-huCD38. Nature of the test: SPR, antigen immobilized, antibody as analyte 25-1.6 nM; estimated from ka and the limit kd, indicative. The method, then: (§2) SPR analysis was performed on a Biocore 8K+, using a CFJB0944 CM5 sensor chip for immobilization and a SPR running buffer 1×HBS-EP+pH 7.4 (Cytiva, cat no. BR100669) according to the manufacturer's instructions.
(§3) In the second part of this example, antigen was immobilized on the chip and antibody dissolved in the SPR running buffer flowed over the chip.

A further test deals with T3, CD38 on Daudi cells (UniProt P28907 1-300, limits assumed).
T3 construct: whole, on cells
Nature of the test: titration binding FACS on Daudi cells. The protocol: as §1

For test [4], the target named is T2, bio-huCD38. The experiment in a line: SPR, antibody captured on chip, antigen as analyte 200-6.25 nM. The method, then:
as §2
In the first part of this example the antibody was immobilized on the chip and the antigen dissolved in the SPR running buffer flowed over the chip.

Test [5] concerns the target T2, bio-huCD38. Nature of the test: SPR, antigen immobilized, antibody as analyte 25-1.6 nM. The protocol:
as §2, §3

The target of another test is T4, EGFR on A-431 cells (UniProt P00533 25-1210, limits assumed).
T4 construct: whole, on cells
Nature of the test: titration binding FACS on A-431 cells. The protocol: as §1

The target in another test is bio-huEGFR (human (hu), UniProt P00533 25-645, biotinylated (bio-), site not stated). The experiment in a line: SPR, antigen immobilized, antibody as analyte 25-1.6 nM. The protocol: as §2, §3

B1: HER2/CD276_23F11-DOTA(humanized fab)-p53 (bispecific antibody)
light: QVQLQESGGGSVQAGGSLKLTCAASGYIFNSCGMGWYRQSPGRERELVSRISGDGDTWHKESVKGRFTISQDNVKKTLYLQMNSLKPEDTAVYFCAVCYNLETYWGQGTQVTVSSGGGSGGGSGGGSGGGGSQAVVTQEPSLTVSPGGTVTLTCGSSTGAVTASNYANWVQQKPGQAPRGLIGGHNNRPPGVPARFSGSLLGGKAALTLLGAQPEDEAEYYCALWYSDHWVIGGGTKLTVLGQPKANPTVTLFPPSSEELQANKATLVCLISDFYPGAVTVAWKADGSPVKAGVETTKPSKQSNNKYAASSYLSLTPEQWKSHRSYSCQVTHEGSTVEKTVAPTECS
heavy: QVQLVESGGGLVQAGGSLRLSCAASGRTFSRQVMGWFRQAPGKERAFVAAISGSGGTTMYAGSVKGRFTISKDNAKNMVYLQMNSLKPEDTAVYYCNTVTPYDSWGQGTQVTVSSGGGGSGGGGSGGGGSGGGGGSHVQLVESGGGLVQPGGSLRLSCAASGFSLTDYGVHWVRQAPGKGLEWLGVIWSGGGTAYNTALISRFTISRDNSKNTLYLQMNSLRAEDTAVYYCARRGSYPYNYFDAWGQGTLVTVSSASTKGPSVFPLAPSSKSTSGGTAALGCLVKDYFPEPVTVSWNSGALTSGVHTFPAVLQSSGLYSLSSVVTVPSSSLGTQTYICNVNHKPSNTKVDKKVEPKSCGGGGSGGGGSKPLDGEYFTLQIRGRERFEMFRELNEALELKDAQAGKEPGGSGGAP
notes: Three specificities (HER2 VHH, CD276 VHH, humanized DOTA Fab); also called YM00053; molecule 17
A word on the EC50: it is the concentration needed to bring the measured effect to its halfway point. In test [1], B1 gave an EC50 of 12.4 nM. The binding result with CD276 on HEK293T cells is recorded as “binds”.

B2: HER2/CD276_23A04-DOTA(humanized fab)-p53 (bispecific antibody)
light: QVQLQESGGGSVQAGGSLKLTCAASGYIFNSCGMGWYRQSPGRERELVSRISGDGDTWHKESVKGRFTISQDNVKKTLYLQMNSLKPEDTAVYFCAVCYNLETYWGQGTQVTVSSGGGSGGGSGGGSGGGGSQAVVTQEPSLTVSPGGTVTLTCGSSTGAVTASNYANWVQQKPGQAPRGLIGGHNNRPPGVPARFSGSLLGGKAALTLLGAQPEDEAEYYCALWYSDHWVIGGGTKLTVLGQPKANPTVTLFPPSSEELQANKATLVCLISDFYPGAVTVAWKADGSPVKAGVETTKPSKQSNNKYAASSYLSLTPEQWKSHRSYSCQVTHEGSTVEKTVAPTECS
heavy: QVQLVESGGGLVQSGDSLRLSCGWSGRTFSGYAMGWFRKAPGKDYEFVAAISVSETKTRYADSIRGRFTISRDNAKNTVYLQMNSLKPEDTAVYYCAASRSGVVGGREPTRYNYWGQGTQVTVSSGGGGSGGGGSGGGGSGGGGGSHVQLVESGGGLVQPGGSLRLSCAASGFSLTDYGVHWVRQAPGKGLEWLGVIWSGGGTAYNTALISRFTISRDNSKNTLYLQMNSLRAEDTAVYYCARRGSYPYNYFDAWGQGTLVTVSSASTKGPSVFPLAPSSKSTSGGTAALGCLVKDYFPEPVTVSWNSGALTSGVHTFPAVLQSSGLYSLSSVVTVPSSSLGTQTYICNVNHKPSNTKVDKKVEPKSCGGGGSGGGGSKPLDGEYFTLQIRGRERFEMFRELNEALELKDAQAGKEPGGSGGAP
notes: Three specificities (HER2 VHH, CD276 VHH, humanized DOTA Fab); also called YM00052; molecule 18
In test [1], B2 gave a concentration giving a half-maximal response (EC50) of 90.2 nM. Besides, the binding result with CD276 on HEK293T cells is on record as “binds”.

B3: CD38 (bivalent)-DOTA(Fab)-p53 (bispecific antibody)
light: DVQLQESGGGLVQAGGSLRLSCTGSGRTFRNYPMAWFRQAPGKEREFVAGITWVGASTLYADFAKGRFTISRDNAKNTVYLQMNSLKPEDTAVYSCAAGRGIVAGRIPAEYADWGQGTQVTVSSGGGGSGGGGSGGGGSGGGGGSQAVVIQESALTTPPGETVTLTCGSSTGAVTASNYANWVQEKPDHLFTGLIGGHNNRPPGVPARFSGSLIGDKAALTIAGTQTEDEAIYFCALWYSDHWVIGGGTRLTVLGQPKANPTVTLFPPSSEELQANKATLVCLISDFYPGAVTVAWKADGSPVKAGVETTKPSKQSNNKYAASSYLSLTPEQWKSHRSYSCQVTHEGSTVEKTVAPTECS
heavy: DVQLQESGGGLVQAGGSLRLSCTGSGRTFRNYPMAWFRQAPGKEREFVAGITWVGASTLYADFAKGRFTISRDNAKNTVYLQMNSLKPEDTAVYSCAAGRGIVAGRIPAEYADWGQGTQVTVSSGGGGSGGGGSGGGGSGGGGGSHVKLQESGPGLVQPSQSLSLTCTVSGFSLTDYGVHWVRQSPGKGLEWLGVIWSGGGTAYNTALISRLNIYRDNSKNQVFLEMNSLQAEDTAMYYCARRGSYPYNYFDAWGRGTTVTVSSASTKGPSVFPLAPSSKSTSGGTAALGCLVKDYFPEPVTVSWNSGALTSGVHTFPAVLQSSGLYSLSSVVTVPSSSLGTQTYICNVNHKPSNTKVDKKVEPKSCGGGGSGGGGSKPLDGEYFTLQIRGRERFEMFRELNEALELKDAQAGKEPGGS
notes: Two identical CD38 VHHs, one on each Fab chain; has the p53 tetramerization domain; also called YM00004; molecule 3
Broadly, the koff is a measure of how fast the partners let go of each other. Higher therefore signals a short-lived complex. By Kd is commonly meant a measure of binding affinity in units of concentration. The kon is a measure of how fast the partners come together. For the molecule B3, the koff was under 1e-07 s⁻¹ with bio-huCD38 [2] and 0.00012 s⁻¹ with bio-huCD38 [4]. Also, the equilibrium dissociation constant (Kd) is under 0.000826 nM with bio-huCD38 [3] and 2.77 nM with bio-huCD38 [4]. This molecule also gave a concentration giving a half-maximal response (EC50) with CD38 on Daudi cells of 3.45 nM. The kon is 43200 M⁻¹ s⁻¹ with bio-huCD38 [4] and 121000 M⁻¹ s⁻¹ with bio-huCD38 [5].

B4: EGFR-DOTA(fab)-p53 (bispecific antibody)
light: EVQLVESGGGLVQPGGSLRLSCVASGFTFADYAMSWVRQAPGKGLQWVSSISYNGDTTYYAESMKDRFTISRDNAKNTLYLQMNSLKSEDTAVYYCASSGSYYPGHFESWGQGTQVTVSSGGGGSGGGGSGGGGSGGGGGSQAVVIQESALTTPPGETVTLTCGSSTGAVTASNYANWVQEKPDHLFTGLIGGHNNRPPGVPARFSGSLIGDKAALTIAGTQTEDEAIYFCALWYSDHWVIGGGTRLTVLGQPKANPTVTLFPPSSEELQANKATLVCLISDFYPGAVTVAWKADGSPVKAGVETTKPSKQSNNKYAASSYLSLTPEQWKSHRSYSCQVTHEGSTVEKTVAPTECS
heavy: HVKLQESGPGLVQPSQSLSLTCTVSGFSLTDYGVHWVRQSPGKGLEWLGVIWSGGGTAYNTALISRLNIYRDNSKNQVFLEMNSLQAEDTAMYYCARRGSYPYNYFDAWGRGTTVTVSSASTKGPSVFPLAPSSKSTSGGTAALGCLVKDYFPEPVTVSWNSGALTSGVHTFPAVLQSSGLYSLSSVVTVPSSSLGTQTYICNVNHKPSNTKVDKKVEPKSCGGGGSGGGGSKPLDGEYFTLQIRGRERFEMFRELNEALELKDAQAGKEPGGS
notes: The assays name bio-huEGFR and A-431 cells; also called YM00010; molecule 9
B4 had a concentration giving a half-maximal response (EC50) in the test with EGFR on A-431 cells of 51.5 nM. Moreover, in the test with bio-huEGFR, the affinity, expressed as Kd, was 2.12 nM; the koff came to 0.000985 s⁻¹; the on-rate constant (kon) is 464000 M⁻¹ s⁻¹.

B5: CD38(Bivalent)-DOTA(fab)-p53_C-Term (bispecific antibody)
light: QAVVIQESALTTPPGETVTLTCGSSTGAVTASNYANWVQEKPDHLFTGLIGGHNNRPPGVPARFSGSLIGDKAALTIAGTQTEDEAIYFCALWYSDHWVIGGGTRLTVLGQPKANPTVTLFPPSSEELQANKATLVCLISDFYPGAVTVAWKADGSPVKAGVETTKPSKQSNNKYAASSYLSLTPEQWKSHRSYSCQVTHEGSTVEKTVAPTECSGGGGSGGGGSGGGGSGGGGGSDVQLQESGGGLVQAGGSLRLSCTGSGRTFRNYPMAWFRQAPGKEREFVAGITWVGASTLYADFAKGRFTISRDNAKNTVYLQMNSLKPEDTAVYSCAAGRGIVAGRIPAEYADWGQGTQVTVSS
heavy: HVKLQESGPGLVQPSQSLSLTCTVSGFSLTDYGVHWVRQSPGKGLEWLGVIWSGGGTAYNTALISRLNIYRDNSKNQVFLEMNSLQAEDTAMYYCARRGSYPYNYFDAWGRGTTVTVSSASTKGPSVFPLAPSSKSTSGGTAALGCLVKDYFPEPVTVSWNSGALTSGVHTFPAVLQSSGLYSLSSVVTVPSSSLGTQTYICNVNHKPSNTKVDKKVEPKSCGGGGSGGGGSGGGGSGGGGGSDVQLQESGGGLVQAGGSLRLSCTGSGRTFRNYPMAWFRQAPGKEREFVAGITWVGASTLYADFAKGRFTISRDNAKNTVYLQMNSLKPEDTAVYSCAAGRGIVAGRIPAEYADWGQGTQVTVSSGGGGSGGGGSKPLDGEYFTLQIRGRERFEMFRELNEALELKDAQAGKEPGGS
notes: Two identical C-terminal CD38 VHHs; has the p53 tetramerization domain; also called YM00015; molecule 14
For B5, the off-rate constant (koff) with bio-huCD38 [2] is under 1e-07 s⁻¹; in the test with bio-huCD38 [4], 6.41e-05 s⁻¹. The equilibrium dissociation constant (Kd) in the test with bio-huCD38 [3] is under 0.000535 nM; in the test with bio-huCD38 [4], 1.89 nM. The molecule also returned a concentration giving a half-maximal response (EC50) in the test with CD38 on Daudi cells of 3.24 nM. Further, the kon was found to be 33800 M⁻¹ s⁻¹ with bio-huCD38 [4] and 187000 M⁻¹ s⁻¹ in the test with bio-huCD38 [5].

(Values after US20260166185A1 (Y MABS THERAPEUTICS, published 2026).)
